The record followed here is paper PMC10203282, “Structural analysis of an endogenous 4-megadalton succinyl-CoA-generating metabolon” (Communications Biology, 2023).

The stoichiometry N is the number of molecules, sites or subunits per partner or assembly. Usually Km stands for the concentration of substrate that gives half-maximal velocity.

Data set [1] has as its target dihydrolipoyl succinyltransferase (E2o) of the oxoglutarate dehydrogenase complex (Chaetomium thermophilum (endogenous in the native cell extract)). The data set is described as follows: cryo-EM structure; native SEC fraction of C. thermophilum lysate, 0.3 mg/mL, single-particle analysis with octahedral symmetry; E2o core map at 3.35 Å.
Substrate in data set [2]: CC(C)(COP(=O)(O)OP(=O)(O)OC[C@H]1O[C@@H](n2cnc3c(N)ncnc32)[C@H](O)[C@@H]1OP(=O)(O)O)[C@@H](O)C(=O)NCCC(=O)NCCS
The data set is described as follows: cells, lysate or membranes. In kind it is biochemical, Thermochaetoides thermophila. The following applies: native SEC fraction, 4 mM α-ketoglutarate, 3 mM NAD+, 2 mM ThDP, 2 mM MgCl2, 100 mM NaCl, 30 mM K2HPO4 pH 7.5, 37 °C, CoA 5-1000 µM, substrate excess inhibition, linear asymptote used.

With “dihydrolipoyl succinyltransferase (E2o) of the oxoglutarate dehydrogenase complex (enzyme)”, the stoichiometry N in data set [1] amounted to 24.

B1: OGDHc (E2o as CoA site) (Thermochaetoides thermophila DSM 1495) (protein)
chain: TYADKIIKVPQMAESITEGTLKQWNKAVGDYVEADEEIATIETDKIDVAVNAPEAGVIKEFFVNEEDTVLVGQDLVRLEVGGEKPAEAAKEQPKAAAPEPKVEEKKVPEAPAPEPSKTAAPAPAPPKQEAPASPKPASKPAETPAVTLGNREERRVKMNRMRLRIAERLKQSQNTAASLTTFNEVDMSALIEFRNKYKDEVLKKTGVKLGFMSAFSRAVVLAIRDLPVVNASIEGPNGGDTIVYRDYVDISVAVATEKGLVTPVVRNAETMDLITIEKTIAELGKKARDGKLTIEDMAGGTFTISNGGVFGSLMGTPIINLPQSAVLGLHAIKERPVAVNGKVEIRPMMYLALTYDHRLLDGREAVQFLVKVKEYIEDPRKMLL
notes: same complex as P1: endogenous native OGDHc in SEC fraction 6 of cell extract; with 2-oxoglutarate dehydrogenase, mitochondrial; Dihydrolipoyl dehydrogenase, mitochondrial; Alpha-ketoglutarate dehydrogenase subunit 4, mitochondrial
As to B1, the Michaelis constant (Km) in data set [2] was 22.81 ± 11.93 µM.
